Results reported in patent US20090012268A1 (B R A H M S, published 2009).
Values joined by “and” are separate entries in the source; they are usually repeats but may differ in a detail not shown here. Equal entries are not always repeated.

Legend:
mouse TSHr = mouse TSHr (mouse, UniProt P47750 22-764); experiment: cell-based or functional assay
[1] = target: human TSH receptor expressed on cells (human, UniProt P16473 21-764); experiment: cell-based or functional assay
[2] = target: T1, recombinant human TSHr preparation immobilized on coated tubes (human, UniProt P16473 21-764, limits assumed); experiment: saturation with acridinium ester labelled antibody on hTSHr coated tubes; Kd1 of a biphasic curve
T1 construct: also called hTSHr coated tubes; TSHr coated tubes
Method: (§1) 5 ng (−200 000 RLU) of acridinium ester labelled monoclonal antibody (20) and different amounts of unlabeled antibodies were added in 0.3 ml of buffer A to TSHr coated tubes. Tubes were incubated for 24 h at room temperature, washed four times with 2 ml washing buffer, and RLU were measured in a luminometer.
(§2) The purified antibodies were subsequently labelled with acridinium ester and used in saturation experiments on hTSHr coated tubes.

[3] = target: T1, recombinant human TSHr preparation …; experiment: saturation with acridinium ester labelled antibody on hTSHr coated tubes; Kd2 of a biphasic curve
Method: as §1, §2

[4] = target: T1, recombinant human TSHr preparation …; experiment: displacement of 50% of 125I-labeled TSH from TSHr coated tubes
Method: Selected mAbs and Fabs (generated after papain digestion) were purified by Sepharose-protein A affinity chromatography (ImmunoPure™ Fab preparation Kit, Pierce, Perbio Science, Belgium) and tested for their ability to stimulate cAMP production using JP26 CHO cells in normal isotonic medium (see above). For TBII activity determination, different amounts of antibodies were added in 250 μl of buffer A (20 mM Hepes-NaOH, pH 7.5, 50 mM NaCl, 1% BSA, 10% glycerol, 2 mg/ml mouse IgG) to hTSHr coated tubes. […] The tubes were incubated for 2 h at room temperature, washed four times with 2 ml washing buffer (8 mM Tris-Hl, 60 mM NaCl, 0.02% Tween-20, pH 7.5), and bound radioactivity was counted.

mouse TSHr, sequence (P47750 22-764): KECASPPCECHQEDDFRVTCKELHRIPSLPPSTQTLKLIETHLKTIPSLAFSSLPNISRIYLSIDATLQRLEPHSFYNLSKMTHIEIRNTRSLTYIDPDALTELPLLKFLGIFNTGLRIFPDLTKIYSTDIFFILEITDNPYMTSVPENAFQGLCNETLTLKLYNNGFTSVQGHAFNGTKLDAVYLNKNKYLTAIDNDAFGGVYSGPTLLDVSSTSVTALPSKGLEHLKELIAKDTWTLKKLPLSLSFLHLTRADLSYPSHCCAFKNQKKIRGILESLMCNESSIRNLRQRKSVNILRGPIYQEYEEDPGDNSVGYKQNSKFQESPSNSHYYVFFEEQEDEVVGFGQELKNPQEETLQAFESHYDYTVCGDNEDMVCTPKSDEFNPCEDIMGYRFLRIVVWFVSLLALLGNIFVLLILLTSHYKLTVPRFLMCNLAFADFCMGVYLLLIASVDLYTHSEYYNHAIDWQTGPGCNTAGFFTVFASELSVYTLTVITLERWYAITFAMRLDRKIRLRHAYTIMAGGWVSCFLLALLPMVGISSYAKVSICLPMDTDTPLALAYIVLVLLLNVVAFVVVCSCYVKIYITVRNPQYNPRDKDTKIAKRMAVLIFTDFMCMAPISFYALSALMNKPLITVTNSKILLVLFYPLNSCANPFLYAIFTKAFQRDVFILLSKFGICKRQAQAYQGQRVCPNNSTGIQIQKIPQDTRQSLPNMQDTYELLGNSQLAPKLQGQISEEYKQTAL

B1: IRI-SAb2 (antibody, IgG2a, V domains shown)
VH: SCKASGYSFTAYTMNWVKQSHGKNLEWIGLINPFNGGTNYNQKFEGKATLTVDKSSTTAYMELLSLTSEDSAVYYCARRVWDYFDYWGQGTSLTVSS
VL: EGSITCKASQNVGTNVAWYQQKGGQSLELLIYGASNRHTGVPDRFTGRGSGTDFTLTITNVQSEDMTNYFCEQYSRYPLTFGAG
notes: Mouse monoclonal IgG2a from a hybridoma; also called mAb IRI-SAb2; DSM ACC2664
- EC50 of cAMP production in MT3 cells, normal-salt medium (mouse TSHr): 1.3 nM
- EC50 of cAMP production in JP26 cells, normal salt medium (IgG) [1]: 2.75 nM
- Kd [2]: 0.07 nM
- Kd [3]: 1.23 nM
- IC50 [4]: 0.3 µg/mL and 2 nM

B2: IRI-SAb3 (antibody, IgG1, V domains shown)
VH: SCKASGYSFTAYTMNWVKQSHGYNLEWIGLINPYNGGANYNQKFKGKATLTVDKSSSTAYMELLSLTSEDSAVYYCARRVWDYFDYWGQGTTLTVSS
VL: EGSITCKASQNVGTNVAWYQQKVGQSLELLIYGASSRHTGVPDRFTGSGSGTDFTLTITDVQSEDMTNYFCEQYSSYPLTFGAG
- EC50 of cAMP production in MT3 cells, normal-salt medium (mouse TSHr): 3.8 nM

B3: IRI-SAb2 Fab fragment (Fab, V domains shown)
VH: SCKASGYSFTAYTMNWVKQSHGKNLEWIGLINPFNGGTNYNQKFEGKATLTVDKSSTTAYMELLSLTSEDSAVYYCARRVWDYFDYWGQGTSLTVSS
VL: EGSITCKASQNVGTNVAWYQQKGGQSLELLIYGASNRHTGVPDRFTGRGSGTDFTLTITNVQSEDMTNYFCEQYSRYPLTFGAG
- EC50 of cAMP production in JP26 cells (Fab) [1]: 1.2 nM

B4: IRI-SAb3 Fab fragment (Fab, V domains shown)
VH: SCKASGYSFTAYTMNWVKQSHGYNLEWIGLINPYNGGANYNQKFKGKATLTVDKSSSTAYMELLSLTSEDSAVYYCARRVWDYFDYWGQGTTLTVSS
VL: EGSITCKASQNVGTNVAWYQQKVGQSLELLIYGASSRHTGVPDRFTGSGSGTDFTLTITDVQSEDMTNYFCEQYSSYPLTFGAG
- EC50 of cAMP production in JP26 cells (Fab) [1]: 74 nM
